Experiment: soluble on expression in E. coli; label from the status in PepcDB or PDB records

| Sequence | soluble on expression in E. coli |
| --- | --- |
| MGSDKIHHHHHHMMKSRDKKDLILESIIQTYLLDNAPIGSNELNSNLCIPASTIRVYLKRLSDEGLITQLHISSGRIPTILTMQNYWQNFWEKEQDKNIHIKNESFLKELSKEFEIYCLVYGGRSLVLKEVLDLNTKFIVLDFEDEELVLKYEKEAWNFLQSLIGLDLSSIEKIALRVHFIDLVEKIASLRQNLICYRSNEERAYQIYQNDEFVKLLDCQIHRHFKESLEFEPLFKEGFMGLKVDAQFLGEDVNIILAGSVYTDYKKILQYIKEAA | not soluble |
| MGSDKIHHHHHHMALDQDGIQKVQKISTGIERLDDLFYGGFDRNDNVVVRGNNFSQKRSFIYSFIKKSANSGIGVVLVDFDFPSEGIMADLVRSGTNTDMVHILDGFAKPFQISAPSNTEMLDDPGNIPSVLKQITSTVQKMDEYVFVMLSATRYLIAKDQNTDRFFVQLINMNRKRSLVSIYAVDDFVPEDRSEWFAYLMDSALHFRNAGARAYLRVLTLKRIRTKEWVRIYPEEGTFTLGSFNVERIK | not soluble |
| MAHHHHHHMKINNNEKSYILYQCLKLLIRLHDAGLSHLDLTPENILISDNYEMRLCDLSKSTPIYTYNLRHIKDVNRLYLFESCEPTIAKGAYMPPECWKIYWKYDTMKIKNPLKDLKNITDQEKRKQFYFDVSSADKFMLGVFFFWIWTNGNLWKCSDPLQDEDFFYFVKCDMNFDKFELTRKWPTDLKNIIKVGGAEQRRSG | not soluble |
| MQVIPLKPLDNKTLEEIGLDWHTNDDMSSYIADEMVVVSQKEADAYYDACNELYDMFVETAEEAIQNDRFFELDIPNALIPMIKQSFEEEVHWHIYGRFDLAGGLDGKPIKLLEFNADTPTMLYETAVIQWALLKANGYDENKQFNNLYEALGENFKRMVTLGEDTSRFEEMYEGWKILFSSVRGNIEEERTMRFLQDAAQSVGFETDFSYIDEVEFNIEEGVFKNGLNYEFLFKLIPWENIAIDEPELALLMQGMMENKNTIFLNPAYTILFQSKRFLKLLWDRYPNHPLLLETSYEPLANKKQIKKVAFGREGANSEIFEASMQSLLKTDGVYSNHKPVYQEFYELNSHNGLYYQPNVFFAYESCALGFRKGGLILDNFSKFVSHRLQ | not soluble |
| SNAMMIKASTNEFRFCFKQMNKSQHELVLGWIHQPHINEWLHGDGLSNTIKDLHEFLNDGKPWATHWIAYDNEIPFAYLITSEIEKSEEYPDGAVTLDLFICRLDYIGKGLSVQMIHEFILSQFSDTKIVLINPEISNERAVHVYKKAGFEIIGEFIASWHPVPHYKMKLCIEDLKKQRLSA | soluble |
| MRTVTGAILAMNLEVKDFVHRDVEEADRRLREIGARKILLQLPDGLKPYAFDYFTYLSQRYDVILSSSPVYGACDIGPSYLYDRVDAIVQVGHSIMRNVKYPRPVIFIEHYRTVDVEDINTEALKNYRRIGLIYSIQYRPVADRVKRILESKGFEVIIGRSDRRMTYDGQVLGCNFSSVHSVEAEVEAFVIVSTGSFHALGSQISTERPVFLLDLNEMSLRSMEKEADTFIRKRYAQIYRAMDAKRICFLVDTRIGQRREKLARMLMDRARDLGKEAVLAYTDNISDQDIQNMGCDLAVYTGCPRVPIDDQDRFTVPVLTPAEFSMAFFKSSKRYVLDEIVSVDEFTDQLEHHHHHH | not soluble |
| MGSDKIHHHHHHMKRSEKKSMSSALKNGIMERTQPEKVVQMQGTADLSTSKLGTKKYWDELYALELENFRRNPQDTGDCWFSDSDAEQKMIDFLVDNIGAYRISENASVVDLGTGNGHMLFELHQTEFQGKLVGIDYSEESVKLASNIAEATGVDNFISFQQADIFSGDWKPGKYDIVLDKGTLDAISLSGMKINGKLDVVDVYAGVVERILKKDGIFLITSCNFTQDELVKIIETDNLKMWKTIKYPVFQFGGVQGATICSVAFVKQN | not soluble |
| MGSDKIHHHHHHMNIGLLEALDQLEEEKGISKEEVIPILEKALVSAYRKNFGNSKNVEVVIDRNTGNIKVYQLLEVVEEVEDPATQISLEEAKKIDPLAEVGSIVKKELNVKNFGRIAAQTAKQVLIQRIRELEKEKQFEKYSELKGTVTTAEVIRVMGEWADIRIGKLETRLPKKEWIPGEEIKAGDLVKVYIIDVVKTTKGPKILVSRRVPEFVIGLMKLEIPEVENGIVEIKAIAREPGVRTKVAVASNDPNVDPIGACIGEGGSRIAAILKELKGEKLDVLKWSDDPKQLIANALAPATVIEVEILDKENKAARVLVPPTQLSLAIGKGGQNARLAAKLTGWKIDIKPIMNL | not soluble |
| MTTLEILRSGPLALVEDLGRAGLAHLGVGRSGAADRRSHTLANRLVANPDDWATVEVTFGGFSARVRGGDVDIAVTGADTDPTVNGIMVGTNSIHHVRDGQVISLGTPRAGLRTYLAVRGGVCVEPVLGSRSYDVMSAIGPSPLRAGDVLPVGEHTDDYPELDQAPVAAIEEHLVELRVVPGPRDDWLVDPDALVHTIWMASNRSDRVGMRLQGRPLQHRWPDRQLPGEGVTRGAIQVPPNGLPVILGPDHPITGSYPVVGVITDEDIDKVAQIRPGQYVRLHWARPRSRLPGQGVTQAW | soluble |
| MTVKAMALNTNQLFAYLNRGDIAEFKFSPLFTTLFFPNVATFSTQNIMLDTLDIEEVTMSAFCSPMVGSQVQRDKGYETSTIKPGYMKPKHEIDPTKTIMRMAGEDPAQLNDPTYRRMRLITGNMRRQINAIKARVEWLAVNAVTTGKNIIEGEGIERYEIDWKIPEKNIIEQADGKKWSEQDKETHYPIYDIELYADQAGCPANVMIMGAEVWRTLRSFKKFRELYDLSRGSESAAELACKNLGEVVSFKGYLGDLALIVYSGKYTDSDGTEKYFLEPDLLVLGNTNNKGLVAYGAIMDQEAVRTGATQNMFYPKNWIEDGDPAIEYVQTHSAPQPVPADIRKFVTVKIA | soluble |
| MGSDKIHHHHHHMSEDIFDAIIVGAGLAGSVAALVLAREGAQVLVIERGNSAGAKNVTGGRLYAHSLEHIIPGFADSAPVERLITHEKLAFMTEKSAMTMDYCNGDETSPSQRSYSVLRSKFDAWLMEQAEEAGAQLITGIRVDNLVQRDGKVVGVEADGDVIEAKTVILADGVNSILAEKLGMAKRVKPTDVAVGVKELIELPKSVIEDRFQLQGNQGAACLFAGSPTDGLMGGGFLYTNENTLSLGLVCGLHHLHDAKKSVPQMLEDFKQHPAVAPLIAGGKLVEYSAHVVPEAGINMLPELVGDGVLIAGDAAGMCMNLGFTIRGMDLAIAAGEAAAKTVLSAMKSDDFSKQKLAEYRQHLESGPLRDMRMYQKLPAFLDNPRMFSGYPELAVGVARDLFTIDGSAPELMRKKILRHGKKVGFINLIKDGMKGVTVL | not soluble |
| GMQGAGRLMQPRPDSAFVHDVRVTWGDCDPAKIAYTGHLPRFALEAIDAWWSEYHGPGGWYHLELDTNVGTPFVRLEMDFKSPVTPRHILKCHTWPTRLGTKSITFRVDGVQDGVTCFVGAFTCVFTIADQFKSQPAPDHLRALIEPHIPA | soluble |
| SLSAASILVVDDEESLRITLAANLELEGHLVLEASSGDEALRLLRERAVDVVLTDIRMPGLHGVELHRHLRREHPGLPVVLMTAFAQESLINDALAEGAFTVLPKPFDVEHLLETLRREG | soluble |
| SMPNHQKVVLVGDGAVGSSYAFAMAQQGIAEEFVIVDVVKDRTKGDALDLEDAQAFTAPKKIYSGEYSDCKDADLVVITAGAPQKPGESRLDLVNKNLNILSSIVKPVVDSGFDGIFLVAANPVDILTYATWKFSGFPKERVIGSGTSLDSSRLRVALGKQFNVDPRSVDAYIMGEHGDSEFAAYSTATIGTRPVRDVAKEQGVSDDDLAKLEDGVRNKAYDIINLKGATFYGIGTALMRISKAILRDENAVLPVGAYMDGQYGLNDIYIGTPAIIGGTGLKQIIESPLSADELKKMQDSAATLKKVLNDGLAELENK | soluble |
| MAEAGDENLYAAARDIARALGKDPSAAGDILQILSGYGASGNRGGDPRPTPSRGGSNVNFDRALTSLERQISSYIVEDRPIWSDPVDSRTFLDSVDELLAIAGDLRSMAGDKSVAVCQSRADELIQQVMFRLQEEFGFVMDRAPDSFDSDDEFPGEEDNDTSDGVIVARPITDYKIVIEALQSSVIGDLNAIAVRMVAGGFAKECSRVYSSRRREFLEESLSRLHLRGLSMEEVQESPWQDLEDEIDRWIKAVTLIFHVFFPSERLLCDRVFSDLPVSSVTDLSFMEVCRGTTTQLLNFADAIALGSRLPERLFKVVDLYEAMQDLIPKMETLFSDRYCSPLRHEALAIHKRLGEAIRGIFMELENLIRRDPPKTAFPGGGIHPITRYVMNYLRAACKSRQSLEQILDQTGNETGSDTRPLSVQIIWVLELLESNLEGKKRTYRDPSLCFLFMMNNDKYILDKAKDNELGLVLGEDWIVKHAAKLRQYHSNYRRSSWNQVVGLLRTDGPYPKLVENLRLFKSQFDEVCKVQSQWVVSDGQLREELRSSVAGIVSPAYSNFIRRLKESPEINGRRGEPFIPYTVEDVEFIIKRLFKESSS | soluble |
| MSAYRHAVERIDSSDLACGVVLHSAPGYPAFPVRLATEIFQRALARLPGDGPVTLWDPCCGSGYLLTVLGLLHRRSLRQVIASDVDPAPLELAAKNLALLSPAGLTARELERREQSERFGKPSYLEAAQAARRLRERLTAEGGALPCAIRTADVFDPRALSAVLAGSAPDVVLTDLPYGERTHWEGQVPAQPVAGLLRSLASALPAHAVIAVTDRSRKIPVAPVKALERLKIGTRSAVLVRAADVLEAGP | soluble |
| HHHHHHMPIQVLPPQLANQIAAGEVVERPASVVKELVENSLDAGATRIDIDIERGGAKLIRIRDNGCGIKKDELALALARHATSKIASLDDLEAIISLGFRGEALASISSVSRLTLTSRTAEQQEAWQAYAEGRDMNVTVKPAAHPVGTTLEVLDLFYNTPARRKFLRTEKTEFNHIDEIIRRIALARFDVTINLSHNGKIVRQYRAVPEGGQKERRLGAICGTAFLEQALAIEWQHGDLTLRGWVADPNHTTPALAEIQYCYVNGRMMRDRLINHAIRQACEDKLGADQQPAFVLYLEIDPHQVDVNVHPAKHEVRFHQSRLVHDFIYQGVLSVLQQQLETPLPLDDEPQPAPR | soluble |
| MSLSKILIAGCGDLGLELARRLTAQGHEVTGLRRSAQPMPAGVQTLIADVTRPDTLASIVHLRPEILVYCVAASEYSDEHYRLSYVEGLRNTLSALEGAPLQHVFFVSSTGVYGQEVEEWLDEDTPPIAKDFSGKRMLEAEALLAAYSSTILRFSGIYGPGRLRMIRQAQTPEQWPARNAWTNRIHRDDGAAFIAYLIQQRSHAVPERLYIVTDNQPLPVHDLLRWLADRQGIAYPAGATPPVQGNKKLSNARLLASGYQLIYPDYVSGYGALLAAMREGHHHHHH | soluble |
| MGSDKIHHHHHHMRIFTASLATETNTFSPVPTDRASFEMAFYAAPGKHPETPTLCSSPIVALRKRAAAEGLTVIEGTATWAEPGGLLQRQAFEELRDEILDQLKAAMPVDAVVLGLHGAMVAQGYDDCEGDLLERVRAIVGPGVLVASEFDPHSHLTPKRVQNLNIFASFLEFPHTDFYERGEHVVELALDALKGRTKPVISTFDCRMIAVLPTSKEPMRSFVDRIKALQGKDGILSISVIHGFMAADVPEMGTRILVVTDNDPQAGAALAAALGRELIAMREQTSMAMLDTDQGIDRALAAHAANPSKPAVIADVWDNPGGGVAGDGTYILRRLIERGVNNAGIATIWDPIAVTFCHAAGEGAVIDLRFGGKSGPLGGEPIDARVTVLKVANEGWQSFGPSRVTLGPSAVVRIEDTGIDIILNTNRTQTFEPDIFSNLGIDPMTKNVLVVKSTNHFHAGFAPVAAEIIYVDAPSSYPSNPRTTNYRKLNRAIWPRVEDPW | not soluble |
| MKKPIHSHRAATLYHFAFCLHNLRRSPNSPFTVRNRDEQKDEKPYENKGKINKFFLDLTYFQLPYPVSERAPLRLRAKIETREKINFKIRASSSPAVLVNFPFPRHSLLVSLSPAHETNNAVDGEALHPRAQRA | not soluble |
